Results published in patent US20150203575A1 (Genentech, published 2015).
Where two headings read alike, the source gives them in different places.

Experiments:
[1] = molecular target: T1, human COLEC12 expressed on cells (human, UniProt Q5KU26 1-742); experiment: flow cytometry, transfected 293T cells
T1 construct: also called hCOLEC12; C-terminal his tagged hCOLEC12

[2] = molecular target: T2, BR3 expressed on cells (human, UniProt Q96RJ3 1-184); experiment: flow cytometry, transfected 293T cells, 50 µg/ml
T2 construct: Clone of the Origene human cDNA library
T2 sequence: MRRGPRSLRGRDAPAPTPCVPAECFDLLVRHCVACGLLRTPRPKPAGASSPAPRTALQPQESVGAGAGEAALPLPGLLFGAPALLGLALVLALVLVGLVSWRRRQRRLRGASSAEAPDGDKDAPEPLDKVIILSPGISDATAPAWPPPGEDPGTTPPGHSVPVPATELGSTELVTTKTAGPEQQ

[3] = molecular target: T3, CLEC4G expressed on cells (human, UniProt Q6UXB4 1-293); experiment: flow cytometry, transfected 293T cells, 50 µg/ml
T3 construct: Clone of the Origene human cDNA library; also called C type lectin superfamily 4 member G
T3 sequence: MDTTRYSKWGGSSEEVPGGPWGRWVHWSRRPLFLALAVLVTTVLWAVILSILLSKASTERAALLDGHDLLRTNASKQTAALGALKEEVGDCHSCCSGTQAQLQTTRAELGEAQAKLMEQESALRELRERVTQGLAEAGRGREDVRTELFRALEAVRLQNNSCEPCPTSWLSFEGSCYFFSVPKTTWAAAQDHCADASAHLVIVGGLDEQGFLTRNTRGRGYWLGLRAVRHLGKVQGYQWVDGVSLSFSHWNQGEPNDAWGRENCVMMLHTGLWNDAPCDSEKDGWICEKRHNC

[4] = molecular target: T4, FceRII expressed on cells (human, UniProt P06734 1-321); experiment: flow cytometry, transfected 293T cells, 50 µg/ml
T4 construct: Clone of the Origene human cDNA library; also called FcRII
T4 sequence: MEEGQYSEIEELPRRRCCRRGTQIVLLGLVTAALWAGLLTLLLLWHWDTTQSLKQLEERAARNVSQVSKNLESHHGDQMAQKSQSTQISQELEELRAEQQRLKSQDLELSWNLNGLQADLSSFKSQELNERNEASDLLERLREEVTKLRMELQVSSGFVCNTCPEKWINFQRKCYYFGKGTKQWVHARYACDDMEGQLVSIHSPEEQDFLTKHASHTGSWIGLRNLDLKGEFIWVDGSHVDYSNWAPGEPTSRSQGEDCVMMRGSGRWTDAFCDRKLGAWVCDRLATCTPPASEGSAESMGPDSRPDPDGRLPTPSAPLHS

[5] = molecular target: T5, MAG expressed on cells (human, UniProt P20916 20-626); experiment: flow cytometry, transfected 293T cells, 50 µg/ml
T5 construct: Clone of the Origene human cDNA library; also called Myelin associated glycoprotein; SIGLEC4A
T5 sequence: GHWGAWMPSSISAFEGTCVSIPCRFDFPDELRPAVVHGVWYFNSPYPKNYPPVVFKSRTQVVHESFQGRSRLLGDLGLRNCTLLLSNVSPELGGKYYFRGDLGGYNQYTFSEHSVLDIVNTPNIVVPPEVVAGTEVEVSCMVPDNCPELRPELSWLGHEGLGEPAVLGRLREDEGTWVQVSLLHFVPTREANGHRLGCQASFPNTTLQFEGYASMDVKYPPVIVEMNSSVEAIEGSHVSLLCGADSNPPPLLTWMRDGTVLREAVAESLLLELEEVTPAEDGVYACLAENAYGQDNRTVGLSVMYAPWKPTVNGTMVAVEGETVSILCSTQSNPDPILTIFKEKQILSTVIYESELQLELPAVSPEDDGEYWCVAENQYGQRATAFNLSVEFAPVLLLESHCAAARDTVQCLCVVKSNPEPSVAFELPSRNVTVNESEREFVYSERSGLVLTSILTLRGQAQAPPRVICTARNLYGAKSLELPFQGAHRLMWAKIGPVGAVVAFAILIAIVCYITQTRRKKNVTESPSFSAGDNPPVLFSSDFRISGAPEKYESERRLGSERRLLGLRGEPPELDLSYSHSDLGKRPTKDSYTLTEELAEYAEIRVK

[6] = molecular target: T4, FceRII expressed on cells; experiment: flow cytometry, transfected 293T cells, 50 µg/ml; remark: listed apart in the source
[7] = molecular target: T5, MAG expressed on cells; experiment: flow cytometry, transfected 293T cells
[8] = molecular target: T6, LRRTM4 expressed on cells (human, UniProt Q86VH4 31-590); experiment: flow cytometry, transfected 293T cells
T6 construct: Clone of the Origene human cDNA library; also called Leucine rich repeat transmembrane neuronal 4
T6 sequence (Q86VH4 31-590 limits assumed): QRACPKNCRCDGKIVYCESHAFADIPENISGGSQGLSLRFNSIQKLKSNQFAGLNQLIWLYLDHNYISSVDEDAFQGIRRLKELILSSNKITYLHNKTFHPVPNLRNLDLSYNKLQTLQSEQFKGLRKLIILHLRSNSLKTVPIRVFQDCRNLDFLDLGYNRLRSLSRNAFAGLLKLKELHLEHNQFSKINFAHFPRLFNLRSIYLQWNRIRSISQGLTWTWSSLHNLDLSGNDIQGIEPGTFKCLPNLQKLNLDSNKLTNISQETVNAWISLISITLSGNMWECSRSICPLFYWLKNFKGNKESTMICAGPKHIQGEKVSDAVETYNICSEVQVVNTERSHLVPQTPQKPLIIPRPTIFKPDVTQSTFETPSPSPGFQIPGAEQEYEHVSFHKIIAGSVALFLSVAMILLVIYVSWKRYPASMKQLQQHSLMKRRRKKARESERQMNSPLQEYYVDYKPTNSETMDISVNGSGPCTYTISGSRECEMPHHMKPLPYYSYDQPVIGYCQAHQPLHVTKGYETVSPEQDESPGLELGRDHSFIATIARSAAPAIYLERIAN

[9] = molecular target: T7, PSS8 expressed on cells (human, UniProt Q16651 30-343); experiment: flow cytometry, transfected 293T cells
T7 construct: Clone of the Origene human cDNA library; also called Protease serine 8; prostasin
T7 sequence (Q16651 30-343 limits assumed): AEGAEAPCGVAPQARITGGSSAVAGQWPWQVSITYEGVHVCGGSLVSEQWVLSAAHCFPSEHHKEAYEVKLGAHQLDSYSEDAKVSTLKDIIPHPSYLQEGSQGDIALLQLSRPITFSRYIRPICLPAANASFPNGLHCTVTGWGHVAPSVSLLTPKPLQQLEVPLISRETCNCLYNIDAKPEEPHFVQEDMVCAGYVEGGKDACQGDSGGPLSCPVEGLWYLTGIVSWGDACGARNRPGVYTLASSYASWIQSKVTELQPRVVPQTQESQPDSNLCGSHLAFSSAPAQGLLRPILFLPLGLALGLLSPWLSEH

[10] = molecular target: T8, IL-2Ra expressed on cells (human, UniProt P01589 22-272); experiment: flow cytometry, transfected 293T cells
T8 construct: Clone of the Origene human cDNA library; also called Interleukin 2 receptor alpha
T8 sequence: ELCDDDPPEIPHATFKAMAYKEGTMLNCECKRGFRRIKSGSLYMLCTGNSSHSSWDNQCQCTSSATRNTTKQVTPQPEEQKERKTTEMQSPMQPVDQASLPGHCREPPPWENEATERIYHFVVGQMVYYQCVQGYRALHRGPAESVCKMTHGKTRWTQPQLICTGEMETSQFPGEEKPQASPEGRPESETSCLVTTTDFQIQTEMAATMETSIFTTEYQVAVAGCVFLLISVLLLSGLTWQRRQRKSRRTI

[11] = molecular target: T5, MAG expressed on cells; experiment: flow cytometry, transfected 293T cells, 50 µg/ml; remark: listed apart in the source
[12] = molecular target: T5, MAG expressed on cells; experiment: flow cytometry, transfected 293T cells, 2 µg/ml
[13] = molecular target: T6, LRRTM4 expressed on cells; experiment: flow cytometry, transfected 293T cells, 2 µg/ml
[14] = molecular target: T1, human COLEC12 expressed on cells; experiment: flow cytometry, transfected 293T cells, ligand-expressing cells gated
[15] = molecular target: T9, HSV1 glycoprotein B expressed on 293T cells (herpes simplex virus type 1, UniProt P10211 31-904); experiment: as above
T9 construct: whole, on cells; also called HSV-1 gB; HSV1 gB

[16] = molecular target: T7, PSS8 expressed on cells; experiment: flow cytometry, transfected 293T cells; remark: listed apart in the source
[17] = molecular target: T8, IL-2Ra expressed on cells; experiment: flow cytometry, transfected 293T cells; remark: listed apart in the source
[18] = molecular target: T2, BR3 expressed on cells; experiment: flow cytometry, transfected 293T cells
[19] = molecular target: T10, mouse CD99 expressed on 293T cells (mouse, UniProt Q8VCN6 29-175, sialylated O-glycans at Thr-45 and Thr-50 (cited as relevant for PILRα recognition)); experiment: flow cytometry, transfected 293T cells
T10 construct: whole, on cells; also called mCD99; mCD99 transfectants
T10 sequence (looked up): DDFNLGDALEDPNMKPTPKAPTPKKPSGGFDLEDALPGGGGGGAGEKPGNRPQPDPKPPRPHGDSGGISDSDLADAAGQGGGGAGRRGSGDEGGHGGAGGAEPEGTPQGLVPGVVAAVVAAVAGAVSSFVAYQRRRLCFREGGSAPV

[20] = molecular target: T11, human NPDC1 expressed on cells (human, UniProt Q9NQX5 35-325); experiment: flow cytometry, transfected 293T cells
T11 construct: also called hNPDC1; hNPCD1
T11 sequence: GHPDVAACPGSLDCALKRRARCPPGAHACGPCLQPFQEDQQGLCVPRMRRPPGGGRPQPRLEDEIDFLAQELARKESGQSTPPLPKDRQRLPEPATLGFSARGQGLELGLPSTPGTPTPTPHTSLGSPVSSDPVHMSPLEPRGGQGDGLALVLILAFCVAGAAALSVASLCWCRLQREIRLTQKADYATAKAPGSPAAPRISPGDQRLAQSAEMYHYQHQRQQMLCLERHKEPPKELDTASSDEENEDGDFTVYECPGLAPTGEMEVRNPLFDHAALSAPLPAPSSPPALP

[21] = molecular target: T6, LRRTM4 expressed on cells; experiment: flow cytometry, transfected 293T cells; remark: listed apart in the source
[22] = molecular target: T3, CLEC4G expressed on cells; experiment: flow cytometry, transfected 293T cells
[23] = molecular target: T7, PSS8 expressed on cells; experiment: flow cytometry, transfected 293T cells, 2 µg/ml
[24] = molecular target: T2, BR3 expressed on cells; experiment: flow cytometry, transfected 293T cells, 2 µg/ml
[25] = molecular target: T12, hCOLEC12-his (human, UniProt Q5KU26 59-742, sialylated O-glycans and N-glycans); experiment: SPR, hPILRα R126A-Fc immobilized, response difference
T12 construct: Whole entry named; also called human COLEC12-his; hCOLEC12 (SPR); not shown: his tag
T12 sequence (Q5KU26 59-742 S522P/G606S limits assumed): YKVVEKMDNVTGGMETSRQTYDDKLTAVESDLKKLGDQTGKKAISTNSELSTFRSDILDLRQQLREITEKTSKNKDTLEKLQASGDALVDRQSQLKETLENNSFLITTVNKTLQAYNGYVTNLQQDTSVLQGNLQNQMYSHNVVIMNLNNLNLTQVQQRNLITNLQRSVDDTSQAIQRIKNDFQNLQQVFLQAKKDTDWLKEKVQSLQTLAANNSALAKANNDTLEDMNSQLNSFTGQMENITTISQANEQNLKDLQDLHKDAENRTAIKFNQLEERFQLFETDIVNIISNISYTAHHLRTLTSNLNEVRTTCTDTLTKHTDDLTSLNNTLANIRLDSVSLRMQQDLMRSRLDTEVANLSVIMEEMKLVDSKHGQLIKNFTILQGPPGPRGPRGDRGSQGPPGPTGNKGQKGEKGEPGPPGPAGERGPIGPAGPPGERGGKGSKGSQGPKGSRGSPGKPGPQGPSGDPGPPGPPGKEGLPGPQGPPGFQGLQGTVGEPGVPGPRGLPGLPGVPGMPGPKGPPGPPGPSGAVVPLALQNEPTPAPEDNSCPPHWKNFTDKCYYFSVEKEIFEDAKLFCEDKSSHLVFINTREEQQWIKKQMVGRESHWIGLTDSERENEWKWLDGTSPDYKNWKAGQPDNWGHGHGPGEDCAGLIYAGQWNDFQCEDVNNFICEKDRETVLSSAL

[26] = molecular target: T13, mCD99-Fc (mouse, UniProt Q8VCN6 29-137, limits assumed, three O-glycans NeuAc1-2Hex1HexNAc1); experiment: as above
T13 construct: also called mouse CD99-Fc; mCD99 (SPR analyte); not shown: Fc
T13 sequence (looked up): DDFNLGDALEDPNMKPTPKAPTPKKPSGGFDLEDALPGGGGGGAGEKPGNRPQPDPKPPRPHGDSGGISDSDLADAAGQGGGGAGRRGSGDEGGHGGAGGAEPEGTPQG

T1 sequence (Q5KU26 whole entry S522P/G606S): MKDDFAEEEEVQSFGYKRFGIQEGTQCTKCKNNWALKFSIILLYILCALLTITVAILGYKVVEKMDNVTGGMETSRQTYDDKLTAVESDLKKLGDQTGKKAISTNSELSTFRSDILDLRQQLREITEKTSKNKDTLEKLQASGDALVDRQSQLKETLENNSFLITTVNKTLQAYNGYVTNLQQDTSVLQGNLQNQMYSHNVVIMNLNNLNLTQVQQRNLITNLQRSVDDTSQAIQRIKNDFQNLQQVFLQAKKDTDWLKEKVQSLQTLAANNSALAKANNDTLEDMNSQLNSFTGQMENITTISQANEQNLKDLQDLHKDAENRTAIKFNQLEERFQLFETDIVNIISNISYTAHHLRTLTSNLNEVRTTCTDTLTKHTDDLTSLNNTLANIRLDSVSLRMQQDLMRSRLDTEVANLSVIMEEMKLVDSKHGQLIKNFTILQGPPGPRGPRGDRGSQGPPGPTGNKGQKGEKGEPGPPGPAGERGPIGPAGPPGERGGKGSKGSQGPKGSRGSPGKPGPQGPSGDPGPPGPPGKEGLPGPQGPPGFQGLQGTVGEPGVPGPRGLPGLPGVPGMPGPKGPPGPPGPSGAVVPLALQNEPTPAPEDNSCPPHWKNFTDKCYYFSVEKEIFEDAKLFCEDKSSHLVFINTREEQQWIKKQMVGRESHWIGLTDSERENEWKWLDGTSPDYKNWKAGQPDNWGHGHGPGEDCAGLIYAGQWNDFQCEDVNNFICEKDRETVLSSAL

B1: mPILRβ (receptor)
chain: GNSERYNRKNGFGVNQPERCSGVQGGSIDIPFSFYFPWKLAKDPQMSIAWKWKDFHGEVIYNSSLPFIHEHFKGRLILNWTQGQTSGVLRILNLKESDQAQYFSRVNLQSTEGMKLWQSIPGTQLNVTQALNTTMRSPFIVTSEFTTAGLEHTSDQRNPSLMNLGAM
notes: also called Mouse PILR-beta
binding result [1]: no binding (tested: 50 µg/ml) | % cells in lower right quadrant [2]: 1.85% | % cells in lower right quadrant [3]: 27.4% | % cells in lower right quadrant [4]: 3.98% | % cells in lower right quadrant [5]: 0.083% | % cells in lower right quadrant [6]: 3.98% | binding result [7]: no binding (tested: 50 µg/ml) | binding result [8]: no binding (tested: 50 µg/ml) | binding result [9]: no binding (tested: 50 µg/ml) | binding result [10]: no binding (tested: 50 µg/ml)

B2: hPILRαR126A-Fc (Fc fusion)
chain: QPSGSTGSGPSYLYGVTQPKHLSASMGGSVEIPFSFYYPWELATAPDVRISWRRGHFHRQSFYSTRPPSIHKDYVNRLFLNWTEGQKSGFLRISNLQKQDQSVYFCAVELDTRSSGRQQWQSIEGTKLSITQAVTTTTQRPSSMTTTWRLSSTTTTTGLRVTQGKRRSDSWHISLETA
notes: Arg mutant of hPILRα-Fc; also called hPILRα R126-Fc; mutant hPILRα; not shown: Fc of mouse IgG2a (PILRα-mIgG2a, called PILRα-Fc)
% cells in lower right quadrant [11]: 12.5% | % cells in lower right quadrant [12]: 0.17% | % cells in lower right quadrant [13]: 0.11% | binding result [14]: no binding | binding result [15]: no binding | binding result [16]: no binding (tested: 50 µg/ml) | binding result [17]: no binding (tested: 50 µg/ml) | binding result [18]: no binding (tested: 50 µg/ml) | binding result [19]: no binding (tested: 50 µg/ml) | binding result [20]: no binding (tested: 50 µg/ml) | binding result [21]: no binding (tested: 50 µg/ml) | binding result [22]: no binding (tested: 50 µg/ml) | % cells in lower right quadrant [23]: 0.012% | % cells in lower right quadrant [24]: 0.47% | binding result [25]: no binding (tested: 1 µM) | binding result [26]: no binding (tested: 1 µM)
